Data reported in the DeepSol protein solubility set.

Assay: soluble on expression in E. coli; label from the status in PepcDB or PDB records

Sequence	soluble on expression in E. coli
MAHCLHPEKFFPVVKSVALPPGSLNGKVALVTGGGTGLGKAIATTFAHLGASVAIAARRLDVLEKTADEIRSSTGGVCEPFQMDVKDPAKVAKAFDAVEKKLGHTPDILINNAAGNFIMATERLSPNAYGTIIDIVLKGTLHVTTELGRRCIQQKRGASVLSITTLYAQSGAPFVVPSAVSKAGVENMTKSLASEWAKHGLRFNAIAPGPIPTEGAFGRLFAGELKDSGDAMKASVPVGRLGHPEEIANLAAFMSSDFMSWMNGAIIDFDGGQQHIHHGSHMGQFLHEWDNEKWEETENLIRGRTGKEKKSKL	soluble
MAHHHHHHMSSYRSDVDPFKEIRVLPREAAQLRHHLSRINHALQTKYFVAAELSELALQPDRSDEFLALYKAEIYRVVAKLNMNAKKQYTVTVDPLRLTTGFEFKRGADRKDNLGTAVTAATVEGLTSPDVHAKWTASLVETSRLLAQQHAINPNCQALSSALQSTPSSQQTQGLNGGGGAAAVGSDVIGDASTCAIDSDVRKANKESFLFSTPPEFAGFAPSGASPGAP	not soluble
MGTWPLTVTKEMEKRKELFRRDPNRALIGAGGYKAADEAIVHDAAIALALGKNVLLKGPTGSGKTRLAETLSALFGQPMHSINCSVDLDAEALLGFKTIVHKNSQAVIEYVPGPVIQAMTKGHLLYIDEINMAKPETLPILNSVLDYRRRLTNPLTGDIVQAKQTFGVIAAINEGYIGTVPLNEALKNRFVVINVPYVQGETLKSVLLAQTTLTDETLIDRFVALSADLLAQVRNGQIAEEAASVRALLDACDLAAYMPPLRAIERSIVDKLDDERERAAVRNIAETWFDE	not soluble
ADPLAATTVADLPVYNGEDVWQRVAQRCRLVDGQGVNERIARQRDWLLNNRGFLTGASKRATPYLHFIVERLDERNMPLELALLPMIESSYNPLANSPAAAAGLWQFIPSTGRQFNLNQSATYDARRDVVASSKAAMDYLTRLHDQFNNDWLLALAAYNAGEGTVARAIDANRRRGMPVDYWHLNLPRETQDYVPRLLALSLVVRNPGAYGVQLTPVANMPYFDVVELNHTVDLTQLAATTGVDEAQLLRLNPAFLRKKTPDGPGRLLIPKTHTQVLTAGIERITGESPTTAVIPASPGKRVIEREPSSQVAERAPTPEPLQAAGREQTAGLMQVLEREPAPESVQPVRREPQPKVVQVARQEPLPGPAQPVQAAEQVTVSDPIQPARQASSQATNERSLLDRRIQKRLYIDDRSSPRKRDEIAYRDEPRELPNGPRVVVYASDPRQ	not soluble
MGSDKIHHHHHHMHVIVKNRYTQEIIHFFLENCRTESLRRSSIYAADFLYGKDQGFFIELRERISNYLDRNVDRISIEIASETGKPFKYIREEILQTIREIKSIRIPEDLHEFVKPGVSALNYNCNDPVLSLFVPLFATILQGSPVLVFANPYNFVSAHIIISMLSEIGLPEGVVNVIPFKPNFNYAYLYGENFSYFQDTYDGLGINRIIQSERHKPATVLWGDIDPDSAVSEFTKRLVRMPFSNEQLLVVDRRMFEYVLNRLKEELSRIVVGDPADGATDLGPVTKDEDLMEALSIVGKYRVERLLAMFRGVEGNLMKPAIILTDDVVKDPFVHAPLVYLVNSASVEDAVNLINEVEADRCALFSDDSKLLKMLYGRTACKEISFNSYMYKDYLFKPFLVKRKILM	not soluble
GFIDSHVHIESSMVSPKEFARAVISRGTTTIIVDPHEIANVCGMDGIKYMMEETKNMPLDVFFMLSSCVPATSFETSGAVLKAEDLKELIDSDRVLGLGEMMNYPGVLSREEEVLNKLKLAGSYNKIVDGHAPSVRGNELNAYNLAGIKTDHECSSIEEMNEKIRNGMYIAIREGSAAKNLDILIKGVNAKNERRIMFCADDRHPDDILKSGHMDNCVRRAIYNGIENTAAIRMASINAAECYKLERVGAIAPSYKADLVVLEDLKDVKVNMVIKSGEVVFKDNKHLKDMGSKSDI	not soluble
MKLIVAVVQDQDSNRLLKTLTDHNFRVTKLATTGGFLKSGNTTFMIGVEDIRVNKALSLIKENGQKRDQMIAPVSPMGGNADSYVPYPVEVEVGGATVFVLPVDEFHQFLEHHHHHH	soluble
MQPQAFYRVVAEDFTAVDGIIRRQLTSRVPLVEKIGDYIISAGGKRLRPLLVLLAGKTLGYKGDDLCLLAATIEFLHTSTLLHDDVVDASGLRRGRSTANALWGNAPSVLVGDFLYARSFEMMVELGSMPVMRIISQATRVIAEGEVLQLSKVRDASTTEETYMEVIRGKTAMLFEASTHSAAALCQAGEEQSEALRRFGDYLGIAFQLVDDLLDYRGDAATLGKNVGDDLAEGKPTLPLIVTMRDGTEEQAALVRKAIQQGGSQDLESVCAAVEAAGALDYTANLARDYAARAIACLDTLPDNEYRSALVELSEFAVARTH	not soluble
MSLKSLEIFSGAGGLAKGLELAGFQHASFIELNKDACNSLRSNFNPKLVYQGDVADFDLSSQEGIEVIAGGPPCQPFSLGGKHLAHEDRRDMFPHAVRYVEYYRPKAFIFENVKGLLRKSFADYFEYILLRLTYPNLGILQNEDWKGHLTRLKEIEFNLYKGIKYKVSYQLLNAADYGVPQKRERVVIVGIRADLDIDWKFPKRTHSEDRLNWEKYVTGEYWEKHNEPKRFNKDIAEKLQKKYGIFEPEKKPWQTVRDTLSDIPHPLGNHKITGHEYRDGARIYPGHTGSGIDEPSKTIKAGGHGVPGGENMIRYDDGTVRYFTSYEAKLLQTFPEEFVISGAWGEAMRQIGNAVPVKLSEILGKHLMGVLSEKSSLHNEGHHHHHH	soluble
MHKDIKIVDASAIVKPTGTPYVVYFSSISNNTHRFIEKLEFEHTRIPVNLDEQIEVNQEYVLFCPTYSGGGEYTSGAVPKQVIHFLNNKHNRDLCRGVISSGNTNFGNTFAIAGPILSKKLNVPLLYQFELLGTKNDVEQVQTIITNFFGKAK	soluble
MGSDKIHHHHHHMAPRKVIITCAVTGSVHTPSMSPYLPVTPDQIASDAIAAAEAGASILHLHARDPKDGRPTADPDVFMQFLPRIKQATDAVINITTGGSSLMTLDQRLAAPLRAEPEMCSLNMGSMNFALFPMLDKPREWQHEWEPKLLEATRDTIFKNTFADMEGVLERLGKGCGTRFEFECYDVGHLYSLAHFRDRGLVSGPLFIQFVLGILGGIGADPDNLVHMKRIADKLFGDSYQFSVLAAGRQQMPLISIAAAMGGNVRVGLEDSLYDGRQLAKSNADQVRRIRGILDGLSLEVATPAEAREMLALKGGDRVAF	not soluble
VIESMSDGYIVVDTSNSIVDVNRAVLELAGKTRKEVLGKNLTYLFGEGVELLCHTPEGDFGREISLKSGSEIKFFTVSVSPLMARNEPEGKLIMIHDIT	not soluble
MVYKTKLGEIEISDESIFTFEKGIPGFEHLRKFALVFPQETFPIGWLLSLEDSEVGLPVVDPKLVRADYDPAVPSEDLEEIEAENQEALLFFCVLTIPPGKPEKTTINLRAPIILNQKKKKGIQTILENEDYQLRHLLSEEIERSKTVVAAALEHHHHHH	soluble
MGTFTLHQGQTNLIKSFFRNYYLNAELELPKDMELREFALQPFGSDTYVRHLSFSSSEELRDYLVNRNLPLHLFYSSARYQLPSARNMEEKAWMGSDLLFDIDADHLCKLRSIRFCPVCGNAVVSEKCERDNVETLEYVEMTSECIKRGLEQTRNLVEILEDDFGLKPKVYFSGNRGFHVQVDCYGNCALLDSDERKEIAEYVMGIGVPGYPGGSENAPGWVGRKNRGINGVTIDEQVTIDVKRLIRIPNSLHGKSGLIVKRVPNLDDFEFNETLSPFTGYTIFLPYITIETEVLGSIIKLNRGIPIKIKSSIGIYLHLRNLGEVKAYVR	soluble
MKIVAIGAIPFSIPYTKPLRFASGEVHAAEHVLVRVHTDDGIVGVAEAPPRPFTYGETQTGIVAVIEQYFAPALIGLTLTEREVAHTRMARTVGNPTAKAAIDMAMWDALGQSLRLSVSEMLGGYTDRMRVSHMLGFDDPVKMVAEAERIRETYGINTFKVKVGRRPVQLDTAVVRALRERFGDAIELYVDGNRGWSAAESLRAMREMADLDLLFAEELCPADDVLSRRRLVGQLDMPFIADESVPTPADVTREVLGGSATAISIKTARTGFTGSTRVHHLAEGLGLDMVMGNQIDGQIGTACTVSFGTAFERTSRHAGELSNFLDMSDDLLTVPLQISDGQLHRRPGPGLGIEIDPDKLAHYRTDN	soluble
MGSDKIHHHHHHMFLEPFFTQTDETVTISPFQASEFAKRVAEDFNPIHDESAKRFCVPGDLLFALVLSHYGLSQKMQFKFEGMVGEGVCLNFPVEVGDSFPICDSRDKTYLSVSRQGDVSRCETQIESFVRSYVSFSGLNFIHVLVPMMREHGVMINPDRPLVIYESMAFDLTTLDFDQVALELSDARLSVDGKRGDVTLEFALISDGKQVGTGVKTLVMSGLRALDEAALDGMAQFYEERRATL	not soluble
MGSDKIHHHHHHMNLSHLKMMITVANLGSLQKTAEQLNRTQSAVSMALKKLEENAGFALFNRDGYRLELTEQGQHFLRQAEEVVRQQQRLQSLATQLKHGAEPLLTLCYDHTCDSKLWVPSIQHIQQQYPTTELHVDGESQMRALKRIDNGSADLALCPWLPLFRQYGDFETLPVAPFELTVVISTALMKEFGRMPQSRQDLLELPMLVPQNLEIGINLDAVLRLPSQQRIRVNEVNTQFELLMAGFGWGIIPKHIALDALEQGKLVEISIPGFVQQVRLEIHLVRSANRTLGPAANAIWESFA	not soluble
MGSDKIHHHHHHMTVRQIIQLAGTLDIPGLPQLDVTQDEISIANLTPLKLWAATAGWGASADDLGFEDRVTGNKIPLNGSATSSRLVNAFDGSQALSQGTAGAVLKDDSFSTAGSFTIAMNLCAINDELTCAPASSSVLPGSGQSYWFLASSAGKFRIGTTSLSTQFADYLGPLLSRTAWLRLILKYDRAVGTMTLYVNGVQQAKLTNDALKTLSLAPGLVMGGLVTTTATPTSPPCLMRSPMGFNSALSDSELALVDRYLSKTLY	not soluble
MLASRRLLPQISSRALSTSPALKSSEISVKEERPYVYNVKLNRPAKLNTFTMDMWREFKKAIDSLADDPKCRSIIISGEGKAFCAGIDIAHGLSDILRIIQDDTIEVGRKGRLVRKFIGEIQDCYTALERCPKPIIASIHSHCLGAGIDLITACDIRVASQDAIFSIREVDVGLAADIGTLNRIQKVVGNDSWTRDVAFTARDFGADEALRFGLISRIYDDRQSLLENSIDMAARIAEKSPIAVQGTKETLNYAREHSTDDSLNFIKTWNMSQLLSTDLLSSAMAVMNKKKATYEDV	not soluble
MNKKELIDILLYDVALEHSAIIQYLYNVFLIGDPEITNEIESIARQEMRHLKWFAQKVVELGGKVTLNRIEEAIKVGQSWEEMLKNDVDAEEEAIKIYSQQLEIVKDDSVKKLLDRVINDEMRHRDEFSEMLEELKNKKIEEAKQEAGIDSEIFNILNKLLQKEYRLILDYLYHFFHSKTWQEKDTSLDIAIESMFHMGELGEKIGELGGYPDLSLPKAKHFKGFTPEEVIEDIKEEETASRMYEENAKKVTREDLVKLFKWFEKQEDYHAQRLKELFRKMNRFTIGGLGEES	not soluble
SLPKLHMFYLGGNAGRSNIEVHDIQFAVCDDYREAVPALKAAWFGDADKIHIDGWQVVEWADGYDIAVSETPKTKMPSENAPRLYFANVGGYRAGQLAEAHAFGLFAAATPAEAKQKALQTLLTDSYVQQHKDNLKDVDNLLALDRIGNFHIRLTPNPHGKPAEIGFQGYLPI	soluble
MKKAKLGKSDLQVFPIGLGTNAVGGHNLYPNLNEETGKELVREAIRNGVTMLDTAYIYGIGRSEELIGEVLREFNREDVVIATKAAHRKQGNDFVFDNSPDFLKKSVDESLKRLNTDYIDLFYIHFPDEHTPKDEAVNALNEMKKAGKIRSIGVSNFSLEQLKEANKDGLVDVLQGEYNLLNREAEKTFFPYTKEHNISFIPYFPLVSGLLAGKYTEDTTFPEGDLRNEQEHFKGERFKENIRKVNKLAPIAEKHNVDIPHIVLAWYLARPEIDILIPGAKRADQLIDNIKTADVTLSQEDISFIDKLFAPG	soluble
